Literature values in paper PMC10299133.

Target: MET (Homo sapiens) (UniProt P08581)
Sequence (P08581 25-932): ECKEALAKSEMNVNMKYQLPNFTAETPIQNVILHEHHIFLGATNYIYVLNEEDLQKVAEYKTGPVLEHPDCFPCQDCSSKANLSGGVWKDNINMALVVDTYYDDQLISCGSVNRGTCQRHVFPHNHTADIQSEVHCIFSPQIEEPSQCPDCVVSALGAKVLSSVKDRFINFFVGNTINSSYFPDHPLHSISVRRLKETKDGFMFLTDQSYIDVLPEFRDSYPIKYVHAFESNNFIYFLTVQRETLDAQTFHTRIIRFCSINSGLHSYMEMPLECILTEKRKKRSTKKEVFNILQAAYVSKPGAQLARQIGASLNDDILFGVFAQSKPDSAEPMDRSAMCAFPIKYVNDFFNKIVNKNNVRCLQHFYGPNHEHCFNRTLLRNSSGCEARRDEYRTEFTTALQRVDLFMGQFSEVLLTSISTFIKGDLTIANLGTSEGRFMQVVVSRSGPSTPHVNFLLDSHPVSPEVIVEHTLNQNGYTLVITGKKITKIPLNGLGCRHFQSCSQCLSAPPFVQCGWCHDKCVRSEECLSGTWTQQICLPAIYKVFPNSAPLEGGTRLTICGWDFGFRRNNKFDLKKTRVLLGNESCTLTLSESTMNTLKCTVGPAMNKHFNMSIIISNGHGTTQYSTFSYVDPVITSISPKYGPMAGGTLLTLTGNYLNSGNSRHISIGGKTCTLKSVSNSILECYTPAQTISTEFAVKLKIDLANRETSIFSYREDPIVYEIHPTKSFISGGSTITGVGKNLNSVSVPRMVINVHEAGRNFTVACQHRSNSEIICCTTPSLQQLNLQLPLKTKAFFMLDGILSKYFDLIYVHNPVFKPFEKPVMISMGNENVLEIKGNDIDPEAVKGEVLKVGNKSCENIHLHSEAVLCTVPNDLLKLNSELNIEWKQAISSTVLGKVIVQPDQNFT

Substance: amivantamab
- Kd: 40 pM
